Experimental data reported in article PMC7222171 (Cellular and Molecular Immunology, 2020).

B1: 8D6 double Cys to Ala mutant (C104A, C109A) (antibody, V domains shown)
VH: QVQLVQSGSELKKPGASLKLSCKASGYTYITPAMNWVRQAPGHGLEWMGGINTNTGNPTYAQGFAGRFVFSWDTSVSTAYLHISSLKTEDTAVYYCADTRIFSARRGTAYGGFDVWGQGTMVTVSS
VL: DIQMTQSPSSLSASVGDRITITCRASQSISNFLNWFQHRPGKAPKLLIYGATILQSGVPSRFSGSGSGTDFTLTISSLQPEDFATYYCQQSDSSTYIFGQGTKVEIK
B2: AR3C double Cys mutant (double amino-acid substitution in the CX4C motif) (antibody, V domains shown)
VH: VQLLEQSGAEVKKPGSSVKVSCETSGGTFDNYALNWVRQAPGQGLEWIGGVVPLFGTTRNAQKFQGRVTISDDKSTGTGHMELRSLRSEDTAVYYCVRSVTPRYAGGGFAYGEFDYWGQGTLVTVSS
VL: EIELTQSPATLSVSPGERATLSCRASQSVSSNLAWYQQKPGQAPRLLIYGASTRATGIPARFSGSGSGTEFTLTVSRLEPEDSAVYFCQQYYRSPLTFGGGTKVEIK

Biological target: Con1 E2 soluble fragment, amino acids 384–661 (wild type) (Hepatitis C virus genotype 1b, Con1, UniProt Q9WMX2)
Sequence (Q9WMX2 384-661): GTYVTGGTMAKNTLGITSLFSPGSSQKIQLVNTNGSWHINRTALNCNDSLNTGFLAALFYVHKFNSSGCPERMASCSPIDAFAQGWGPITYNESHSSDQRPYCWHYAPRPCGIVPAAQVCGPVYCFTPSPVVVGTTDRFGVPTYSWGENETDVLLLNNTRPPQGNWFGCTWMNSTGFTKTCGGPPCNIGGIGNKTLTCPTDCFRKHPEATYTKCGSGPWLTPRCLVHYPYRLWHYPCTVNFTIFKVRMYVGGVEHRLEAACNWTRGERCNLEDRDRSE
Assay: ELISA

Binder	binding result
B1	binds
B2	binds
